The results in this text go back to patent US20260258141A1 (BIOCYTOGEN PHARMACEUTICALS BEIJING, published 2026).

Substitutions are numbered along the chain they refer to.

First the molecules themselves.
B1: anti-IGF1R antibody 12A4 (antibody, V domains shown)
VH: EVQLVQSGGGEIRPGGSLRLSCAASGFTFADYGMSWVRQAPGEGLEWVSEIDWTGGSKLYADSVKGRFTISRDNAKNSLFLQMNSLRAEDTALYYCVRDRGAVSPKYYYYGMDVWGQGTTVTVSS
VL: EIVLTQSPSSLSASVGDRVTITCRASQGIRNDLGWYQQKPGKAPKRLIYAASRLQSGVPSRFSGSGSGTDFTLTISSLQPEDFATYYCLQHNSYPYTFGQGTKLEIK
B2: anti-IGF1R antibody 10G1 (antibody, human IgG1, V domains shown)
VH: QVQLVESGGGLVKPGGSLRLSCAASEFTFSDYYMSWIRQSPGKGLEWVSYISNSGSFTNYADSVKGRFTISRDNAKNSLYLQMNSLRAEDSAIYYCVRDQAPVTSKYYYYGMDVWGQGTTVTVSS
VL: B1 VL with L33F, G34A, S56R, D70E
B3: anti-IGF1R antibody 10D1 (antibody, human IgG1, V domains shown)
VH: QVQLQQSGGGVVRPGGSLRLSCAASGFTFADYGMSWVRQVPGKGLEWVSGINWNGGSTDYADSVKGRFTISRDNAKHSLYLQMNSLRAEDTAFYYCARDRGAVSRRYYYYGMDVWGLGTTVTVSS
VL: B1 VL with E1A, V3Q, G28D, Q38L, R61G, D70E
B4: anti-IGF1R antibody 12D1 (antibody, human IgG1, V domains shown)
VH: B3 VH with Q5V, Q6E, A30D, D73E, N74K, H77N, F93L, A97V, S104T, L117Q
VL: B1 VL with E1D, V3Q, L4M, G28D, Q38L, D70E

For one experiment, the target named is T1, human IGF1R (insulin-like growth factor 1 receptor) on cells (human, UniProt P08069 31-1367). Description: cell-based or functional assay.
T1 sequence (P08069 31-1367 limits assumed): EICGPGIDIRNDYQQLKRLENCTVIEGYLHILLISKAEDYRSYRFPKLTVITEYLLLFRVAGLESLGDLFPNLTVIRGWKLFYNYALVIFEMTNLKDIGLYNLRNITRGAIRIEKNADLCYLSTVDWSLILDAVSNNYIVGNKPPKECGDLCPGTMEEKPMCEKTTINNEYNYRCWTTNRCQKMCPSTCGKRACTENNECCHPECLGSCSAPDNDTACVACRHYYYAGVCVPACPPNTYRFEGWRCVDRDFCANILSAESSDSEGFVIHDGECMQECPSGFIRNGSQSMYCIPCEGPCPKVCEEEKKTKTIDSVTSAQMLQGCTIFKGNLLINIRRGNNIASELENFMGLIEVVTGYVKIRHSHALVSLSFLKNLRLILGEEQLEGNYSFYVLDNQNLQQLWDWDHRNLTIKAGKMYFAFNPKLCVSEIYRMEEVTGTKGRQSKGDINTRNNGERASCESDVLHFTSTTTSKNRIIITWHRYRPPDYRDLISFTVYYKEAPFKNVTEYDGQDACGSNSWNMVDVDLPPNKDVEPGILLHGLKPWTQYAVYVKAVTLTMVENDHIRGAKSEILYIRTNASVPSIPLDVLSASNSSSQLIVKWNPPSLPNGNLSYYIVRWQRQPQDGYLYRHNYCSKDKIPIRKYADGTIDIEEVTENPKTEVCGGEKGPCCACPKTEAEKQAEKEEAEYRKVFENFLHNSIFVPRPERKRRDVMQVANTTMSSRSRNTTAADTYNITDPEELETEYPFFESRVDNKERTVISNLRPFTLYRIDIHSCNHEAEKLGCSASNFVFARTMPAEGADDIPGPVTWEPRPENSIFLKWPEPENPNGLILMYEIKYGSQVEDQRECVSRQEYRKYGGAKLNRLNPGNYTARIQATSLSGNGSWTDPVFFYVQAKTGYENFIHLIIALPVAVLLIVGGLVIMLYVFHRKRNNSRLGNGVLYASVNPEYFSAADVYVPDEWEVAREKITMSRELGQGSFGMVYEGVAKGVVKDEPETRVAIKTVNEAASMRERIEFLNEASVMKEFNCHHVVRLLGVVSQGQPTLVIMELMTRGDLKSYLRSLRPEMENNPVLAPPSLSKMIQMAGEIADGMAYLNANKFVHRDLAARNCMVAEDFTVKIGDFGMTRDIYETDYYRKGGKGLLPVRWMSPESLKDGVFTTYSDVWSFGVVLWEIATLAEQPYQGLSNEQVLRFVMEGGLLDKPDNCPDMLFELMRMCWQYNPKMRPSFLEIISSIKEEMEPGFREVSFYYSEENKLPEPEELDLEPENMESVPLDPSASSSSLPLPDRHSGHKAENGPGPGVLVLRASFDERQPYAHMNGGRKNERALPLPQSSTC
Turning to B1, the “EC50 of internalization (MFI of pHAb-labelled secondary Fab, NCI-H838 cells)” value (from here on “EC50 of internalization”) is 0.92 nM.

Turning to B2, the “EC50 of internalization” value came to 1.12 nM.

In the case of B3, the “EC50 of internalization” value was found to be 0.51 nM.

In the case of B4, the “EC50 of internalization” value came out at 0.66 nM.

Another experiment deals with T1, human IGF1R (insulin-like growth factor …). Description: cell-based or functional assay. This is another data set of the same source.
On to B1, for which the “IC50 of inhibition of IGF-1-induced proliferation (NCI-H838 cells)” value (“IC50 of inhibition … (NCI-H838 cells)” below) came to 0.045 nM and the “Max inhibition (%) (10 µg/mL) of IGF-1-induced proliferation (NCI-H838 cells)” value (“Max inhibition (%) (10 µg/mL) … (NCI-H838 cells)” for short) stood at 105%.

Take B2: the “IC50 of inhibition … (NCI-H838 cells)” value amounted to 0.091 nM and the “Max inhibition (%) (10 µg/mL) … (NCI-H838 cells)” value was found to be 88%.

For B3, the “IC50 of inhibition … (NCI-H838 cells)” value is 0.14 nM and the “Max inhibition (%) (10 µg/mL) … (NCI-H838 cells)” value stood at 117%.

In the case of B4, the “IC50 of inhibition … (NCI-H838 cells)” value came out at 0.064 nM and the “Max inhibition (%) (10 µg/mL) … (NCI-H838 cells)” value came out at 145%.

A further experiment has the same target. Description: cell-based or functional assay. The source holds these as a separate data set.
With B1, the “IC50 of inhibition of IGF1R phosphorylation (CHO-S-hIGF1R cells, IGF-1 added, phosphotyrosine IGF1R ELISA)” value came out at 0.9 nM.

As for B2, the “IC50 of inhibition of IGF1R phosphorylation (CHO-S-hIGF1R cells, IGF-1 added, phosphotyrosine IGF1R ELISA)” value stood at 1.2 nM.

B3: the “IC50 of inhibition of IGF1R phosphorylation (CHO-S-hIGF1R cells, IGF-1 added, phosphotyrosine IGF1R ELISA)” value worked out at 1.4 nM.

As to B4, the “IC50 of inhibition of IGF1R phosphorylation (CHO-S-hIGF1R cells, IGF-1 added, phosphotyrosine IGF1R ELISA)” value was 1.3 nM.

The target is the same in another experiment. Description: cell-based or functional assay. The source holds these as a separate data set.
Take B1: the “IC50 of inhibition of IGF-1-induced OPN secretion (U2OS-TSHR cells)” value (“IC50 of inhibition … (U2OS-TSHR cells)” for short) came out at 0.068 nM.

For B2, the “IC50 of inhibition … (U2OS-TSHR cells)” value is 0.13 nM.

Consider B3, for which the “IC50 of inhibition … (U2OS-TSHR cells)” value worked out at 0.046 nM.

For the molecule B4, the “IC50 of inhibition … (U2OS-TSHR cells)” value is 0.096 nM.

For the next experiment, the target named is His-tagged cynomolgus monkey IGF1R protein (ACRO Biosystems Inc., Cat #: IGR-C5225) (cynomolgus monkey). In words: SPR (Biacore 8K), antibody captured on Protein A chip, antigen as analyte, 1:1 model.
As a reminder, the Kd is the equilibrium constant for the complex coming apart. A word on the koff: it is the first-order rate constant of dissociation. The term kon denotes the rate constant with which the complex forms. B1 came in with a Kd of 0.568 nM, a koff of 1.05e-05 s⁻¹ and a kon of 18400 M⁻¹ s⁻¹.

Molecule B2 registered a Kd of 8.57 nM, a koff of 0.000237 s⁻¹ and an on-rate (kon) of 27600 M⁻¹ s⁻¹.

B3 gave a Kd of 2.1 nM, a koff of 1.75e-05 s⁻¹ and a kon of 8360 M⁻¹ s⁻¹.

The molecule B4 returned a dissociation constant Kd of 2.79 nM, a koff of 1.8e-05 s⁻¹ and a kon of 6450 M⁻¹ s⁻¹.

For another experiment, the target named is T2, His-tagged human IGF1R protein (ACRO Biosystems Inc., Cat #: IGR-H5229) (human, UniProt P08069 31-932).
T2 construct: Bought protein; also called hIGF1R-His; not shown: His tag
T2 sequence (P08069 31-932): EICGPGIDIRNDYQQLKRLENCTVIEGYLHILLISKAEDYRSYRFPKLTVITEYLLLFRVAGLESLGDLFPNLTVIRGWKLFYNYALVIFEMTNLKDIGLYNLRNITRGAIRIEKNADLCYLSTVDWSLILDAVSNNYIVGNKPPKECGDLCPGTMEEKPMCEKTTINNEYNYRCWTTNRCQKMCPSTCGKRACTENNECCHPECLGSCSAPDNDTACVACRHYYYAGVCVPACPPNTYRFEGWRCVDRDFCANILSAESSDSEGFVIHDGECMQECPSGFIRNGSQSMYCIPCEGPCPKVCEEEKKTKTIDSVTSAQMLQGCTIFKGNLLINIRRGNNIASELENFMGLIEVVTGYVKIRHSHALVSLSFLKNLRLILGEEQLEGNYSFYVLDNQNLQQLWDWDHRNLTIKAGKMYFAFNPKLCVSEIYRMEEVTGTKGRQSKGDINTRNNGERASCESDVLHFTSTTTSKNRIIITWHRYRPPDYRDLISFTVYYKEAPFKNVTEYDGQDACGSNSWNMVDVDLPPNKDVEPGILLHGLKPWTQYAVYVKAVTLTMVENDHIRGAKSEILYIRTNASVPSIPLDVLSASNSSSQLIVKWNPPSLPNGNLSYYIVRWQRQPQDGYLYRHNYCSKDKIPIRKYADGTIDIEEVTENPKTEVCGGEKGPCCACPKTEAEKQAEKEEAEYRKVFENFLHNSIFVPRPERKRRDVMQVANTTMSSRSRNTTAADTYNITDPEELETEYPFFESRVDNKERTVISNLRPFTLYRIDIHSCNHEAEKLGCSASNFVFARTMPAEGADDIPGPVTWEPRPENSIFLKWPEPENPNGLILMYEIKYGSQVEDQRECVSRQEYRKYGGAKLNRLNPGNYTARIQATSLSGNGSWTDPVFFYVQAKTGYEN
In words: blocking ELISA on coated hIGF1R-His; blocked ligand: biotinylated human IGF-I. The method, then:
(§1) Blocking assays were performed to determine whether the anti-IGF1R antibodies can block the binding between IGF1R and its ligand IGF-1 and IGF-2. Specifically, the microwell plates were coated with 100 μl/well of 5 μg/mL hIGF1R-His in pH 9.6 carbonate buffer, overnight at 4° C. Plates were blocked with at 200 μl/well of 1% bovine serum albumin and incubated at 37° C. for 2 hours. Serially diluted anti-IGF1R antibodies (0.005-10 μg/mL in 3-fold serial dilution plus buffer blank) were added to the plates at 100 μL/well. After a 1.5-hour incubation, Biotinylated Human IGF-I Protein (Acro Biosystems, Cat #: IG1-H82F7) or Biotinylated Human IGF-I Protein was replaced with Biotinylated Human IGF-II Protein (Acro Biosystems, Cat #: IG2-H82Q6) were added to the plates at 100 μL/well. After a 1.5-hour incubation at 37° C., HRP Streptavidin (Biolegend, Cat #: 405210) at 1:3000 dilution was added to the plates at 100 μL/well and incubated for 1 hour. Plates were washed 5 times and 100 μL of TMB was added to each well, and incubated for 10 minutes. 100 uL of 1M Phosphoric Acid was then added to each well and ELISA plates were read at 450/570 nm wavelength. A fitting curve was obtained using Log (antibody concentration (M)) as the X-axis and […] as the Y-axis.
A general note: ELISA stands for enzyme-linked immunosorbent assay.
One may read the IC50 as the concentration needed to halve the response being measured. As to B1, 2 nM corresponded to half-maximal inhibition (IC50) and the “Max inhibition (%) (10 µg/mL)” value came out at 50%.

Consider B2, for which it took 1.6 nM to reach half-maximal inhibition (IC50) and the “Max inhibition (%) (10 µg/mL)” value was 43%.

Take B3: the IC50 was 1.3 nM and the “Max inhibition (%) (10 µg/mL)” value is 47%.

Take B4: the IC50 was found to be 2.2 nM and the “Max inhibition (%) (10 µg/mL)” value was 55%.

The target of a further experiment is T2, His-tagged human IGF1R protein (ACRO …). Description: blocking ELISA on coated hIGF1R-His; blocked ligand: biotinylated human IGF-II. The protocol:
as §1
With B1, the IC50 was determined as 1.9 nM and the “Max inhibition (%) (10 µg/mL)” value came out at 81%.

Turning to B2, 5.2 nM corresponded to half-maximal inhibition (IC50) and the “Max inhibition (%) (10 µg/mL)” value worked out at 73%.

As to B3, the concentration for half-maximal inhibition (IC50) is 1.7 nM and the “Max inhibition (%) (10 µg/mL)” value worked out at 76%.

On to B4, for which the IC50 was 1.6 nM and the “Max inhibition (%) (10 µg/mL)” value turned out to be 88%.

The target is the same in another experiment. Description: SPR (Biacore 8K), antibody captured on Protein A chip, antigen as analyte, 1:1 model. The method, then:
The affinity of the anti-IGF1R antibodies to His-tagged human IGF1R protein (hIGF1R-His, ACRO Biosystems Inc., Cat #: IGR-H5229) and His-tagged cynomolgus monkey IGF1R protein (cIGF1R-His, ACRO Biosystems Inc., Cat #: IGR-C5225) were measured using surface plasmon resonance (SPR) using Biacore™ (Biacore, Inc., Piscataway N.J.) 8K biosensor equipped with pre-immobilized Protein A sensor chips.
Purified anti-IGF1R antibodies were captured on the Protein A chip (Series S Sensor Chip Protein A) for the detection. 1 μg/mL or 10 μg/mL purified anti-IGF1R antibodies was loaded at 10 μL/min to bind to a gradient concentration of recombinant hIGF1R-His or cIGF1R-His (400 nM, 200 nM, 100 nM, 50 nM, 25 nM, 12.5 nM, 6.25 nM, 3.125 nM). The flow rate was 30 μL/min, the binding and dissociation time were set to 180 s and 800 s or 1200 s, respectively. The chip was regenerated after the last injection of each titration with a glycine solution (pH 2.0) at 30 μL/min for 30 seconds.
For orientation: SPR reads the build-up and loss of mass on a sensor chip optically.
B1 yielded a Kd of 0.214 nM, a koff of 5.69e-06 s⁻¹ and a kon of 26600 M⁻¹ s⁻¹.

The molecule B2 came in with a Kd of 3.99 nM, a koff of 0.000162 s⁻¹ and a kon of 40700 M⁻¹ s⁻¹.

In the case of B3, the Kd was determined as 1.63 nM, the koff was 1.26e-05 s⁻¹ and the kon is 7750 M⁻¹ s⁻¹.

Molecule B4 came in with a Kd of 1.72 nM, a koff of 1.05e-05 s⁻¹ and a kon of 6120 M⁻¹ s⁻¹.

A further experiment shares this target. Description: SPR (Biacore 8K) on captured hIGF1R-His, binder injected second (Analyte 2); competitor injected first (Analyte 1): 10D1. The method, then: (§2) Epitope binding assays were performed using Biacore™ 8K biosensor to determine whether two anti-IGF1R antibodies target the same or overlapping epitopes. 1×HBS-EP+ buffer (10 mM 4-(2-hydroxyethyl)-1-piperazineethanesulfonic acid (HEPES), 150 mM NaCl, 3 mM ethylenediaminetetraacetic acid (EDTA) and 0.05% P20, pH7.4) diluted from HBS-EP+buffer (10×) was used as the running buffer throughout the experiment. About 50 RU of hIGF1R-His was captured at a flow rate of 10 μL/min, and 200 nM of the tested antibody (Analyte 1) was injected at a flow rate of 30 uL/min to bind the ligand. Another comparison antibody (Analyte 2) was injected under the same conditions to determine whether the binding of different antibodies interfered with each other. The binding time was 180 s for each antibody.
(§3) The binding value of each antibody was obtained using Biacore Insight Evaluation (Version: 2.0.15.12933). To quantify the interference of one antibody binding to another, a binding ratio was calculated to compare each pair of antibodies. The binding ratio is defined as the binding value of the second antibody (Analyte 2) divided by the binding value of the first antibody (Analyte 1). The threshold to determine the block or non-block is 0.3.
With B1, the “binding ratio (Analyte 2 / Analyte 1)” value was -0.05.

As to B2, the “binding ratio (Analyte 2 / Analyte 1)” value was -0.04.

In the case of B3, the “binding ratio (Analyte 2 / Analyte 1)” value was -0.02.

Consider B4, for which the “binding ratio (Analyte 2 / Analyte 1)” value was -0.04.

The next experiment shares this target. Description: SPR (Biacore 8K) on captured hIGF1R-His, binder injected second (Analyte 2); competitor injected first (Analyte 1): 12A4. The method, then:
as §2, §3
B1: the “binding ratio (Analyte 2 / Analyte 1)” value is -0.01.

With B2, the “binding ratio (Analyte 2 / Analyte 1)” value is -0.03.

For the molecule B3, the “binding ratio (Analyte 2 / Analyte 1)” value stood at 0.02.

For B4, the “binding ratio (Analyte 2 / Analyte 1)” value turned out to be 0.

For the next experiment the target is unchanged. Description: SPR (Biacore 8K) on captured hIGF1R-His, binder injected second (Analyte 2); competitor injected first (Analyte 1): 12D1. The protocol:
as §2, §3
Consider B1, for which the “binding ratio (Analyte 2 / Analyte 1)” value was -0.02.

As for B2, the “binding ratio (Analyte 2 / Analyte 1)” value is -0.02.

As for B3, the “binding ratio (Analyte 2 / Analyte 1)” value was found to be 0.02.

Consider B4, for which the “binding ratio (Analyte 2 / Analyte 1)” value is -0.01.
